Results taken from patent US20180188270A1, “DIAGNOSTIC TEST FOR ALZHEIMER'S DISEASE BASED ON IDENTIFICATION OF A PROTEOLYTIC PATHWAY” (Health Research, Inc., priority 2015, published 2018).

Assays:
[1] = tested on: plasma coagulation factors FXII, PK, HMWK, FXI, FIX, FX, FII, FI and FVII; test: Changes in plasma coagulation factors in mice by IB (FI by ELISA); type: in vivo, mouse; settings: 6 h after i.p. treatment
Procedure: Animal studies. […] Male mice at 7-8 weeks of age were used, including wild type (WT) mice (C57BL/6), and mice deficient in FXII (C57BL/6-FXII^−/−) or FVII (C57BL/6-FVII^tTA/tTA). WT C57BL/6 mice were purchased from Taconic. C57BL/6-FXII^−/− mice and C57BL/6-FVII^tTA/tTA mice were bred in our own facility and genotyped. […] CCl4 was dissolved in corn oil, whereas all other substances were dissolved in PBS. The vehicle or the test substance was given to mice in 0.1 ml volume per 20 g body weight. Blood was collected from the mice at specific times by cardiac puncture at the time of sacrifice by carbon dioxide, and heart, liver and kidney were also collected from some of the mice. Blood was collected into K3 EDTA-containing tubes (Multivette 600 from Sarstedt), unless specified otherwise. All blood samples were promptly centrifuged to obtain plasma samples.
The plates were washed three times with phosphate buffered saline tween-20 (PBST) and the coated wells were blocked by incubation with 200 μl/well of 1% BSA in PBS for at least 2 h at RT. […] The plates were washed again with PBST, and each well was incubated with a goat anti-rabbit IgG-HRP conjugate (100 μl) for 1 h at RT. After yet another round of wash with PBST, each well was incubated with 100 μl of HRP substrate 3,3′,5,5′-tetramethylbenzedine (Cell Signaling, 7004). Upon adequate color development, 100 μl of stop solution (Cell Signaling, 7002) was added to each well, and absorbance at 450 nm was promptly recorded by a microtiter plate reader. Plasma FI concentration was determined using an assay kit (400-374-130050) from GenWay Biotech, following the manufacturer's instruction.
IB. Tissue samples were mixed with RIPA buffer (25 mM Tris-HCl, pH 7.6, 150 mM NaCl, 1% Nonidet P-40, 1% sodium deoxycholate, 0.1% SDS), supplemented with 2 mM phenylmethanesulfonyl fluoride, a proteinase inhibitor mix (Roche Applied Science) and phosphatase inhibitor Cocktail 2 (Sigma-Aldrich). Tissue samples were stroked in a Dounce homogenizer, and the homogenates were cleared by centrifugation at 12,000×g for 15 min at 4° C. Protein concentrations in all samples were measured by the BCA assay kit. Plasma samples were used without further processing (20 μl per sample). Each sample was mixed with 4× loading dye, heated for 5 min at 95° C. and then resolved by SDS-PAGE (8-12.5%). […] The proteins were transferred to polyvinylidene fluoride membrane, probed with specific antibodies and detected using the ECL Plus Kit (Amersham) or the SuperSignal West Pico Kit (Thermo Scientific).

FVIIa = molecular target: T1, FVIIa (Homo sapiens, UniProt P08709); test: In vitro degradation by FVIIa with or without TF; type: biochemical; settings: for hPEPD remaining (enzymatic activity): 60 min
T1 construct: purchased Haematologic Technologies HCVIIA-0031 (FVIIa); RTF-0300 (TF)
T1 sequence (P08709 61-212 limits assumed): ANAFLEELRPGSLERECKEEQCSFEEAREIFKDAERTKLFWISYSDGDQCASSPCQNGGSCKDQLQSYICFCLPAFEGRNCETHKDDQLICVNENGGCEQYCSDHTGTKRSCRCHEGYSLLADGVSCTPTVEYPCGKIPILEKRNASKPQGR
T1 sequence (P08709 213-466 limits assumed): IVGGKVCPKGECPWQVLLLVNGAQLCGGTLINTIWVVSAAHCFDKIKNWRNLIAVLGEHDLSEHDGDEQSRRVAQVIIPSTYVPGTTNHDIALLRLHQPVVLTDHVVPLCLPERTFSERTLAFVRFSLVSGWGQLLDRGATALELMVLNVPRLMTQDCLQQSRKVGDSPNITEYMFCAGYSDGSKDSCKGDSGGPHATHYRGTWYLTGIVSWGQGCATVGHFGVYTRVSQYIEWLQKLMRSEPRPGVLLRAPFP
T1 sequence (P13726 33-295 partner): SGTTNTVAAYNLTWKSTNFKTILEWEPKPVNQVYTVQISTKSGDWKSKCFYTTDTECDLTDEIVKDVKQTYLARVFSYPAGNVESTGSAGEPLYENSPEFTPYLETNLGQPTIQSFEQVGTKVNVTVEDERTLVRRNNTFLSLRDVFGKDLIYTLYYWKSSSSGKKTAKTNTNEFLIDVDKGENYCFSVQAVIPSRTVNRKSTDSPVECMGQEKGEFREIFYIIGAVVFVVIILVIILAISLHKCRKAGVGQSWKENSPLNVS
Procedure: (§1) To determine whether a blood coagulation factor degrades hPEPD, hPEPD at 90 nM or lower concentrations (10 or 40 nM) was incubated with solvent, 100 nM FIIa, 100 nM FXa, 10 nM FVIIa with or without 10 nM TF, or 10 nM FVII with or without 10 nM TF and/or 100 nM FIIa in PBS in a total volume of 100 μl containing 5 mM CaCl2 for desired times at RT. […] To compare the hPEPD-degrading activities of different plasma samples, 9.2 pmol of hPEPD was incubated with 100 μl of plasma from WT mice or FVII^tTA/tTA mice at RT, with or without FIIa or FXa (10 pmol), and to maximize detection of any activity, all incubations lasted for 24 h. […] To measure remaining hPEPD, the incubated samples were cleared of potential fibrin clots by centrifugation and then analyzed by SDS-PAGE and silver staining (using the LC 6070 kit from Invitrogen), IB or measurement of hPEPD enzymatic activity. hPEPD enzymatic activity was measured using glycyl-proline as a substrate (as described in Zbucka et al., Folia Histochem Cytobiol 2007; 45 Suppl 1: S181-185). The precipitates from each incubated sample were washed with PBS twice and then resuspended in 2.5% SDS (20 μper sample); each solution was mixed with 10 μl loading dye and analyzed for hPEPD by IB, using pure hPEPD as a standard and factor FXIIIa as a binding control, respectively.
All samples after incubation were resolved by SDS-PAGE and stained by silver.
(§2) Each value is mean±SD (n=3).

FXa = molecular target: T2, FXa (Homo sapiens, UniProt P00742); test: hPEPD stability on incubation with FXa; type: biochemical; settings: hPEPD 90 nM, FXa 100 nM
T2 construct: purchased Haematologic Technologies HCXA-0060
T2 sequence (P00742 41-179 limits assumed): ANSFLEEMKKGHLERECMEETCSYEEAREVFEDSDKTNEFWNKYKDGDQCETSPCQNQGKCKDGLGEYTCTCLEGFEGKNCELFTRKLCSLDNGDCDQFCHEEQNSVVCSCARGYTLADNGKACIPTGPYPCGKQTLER
T2 sequence (P00742 235-488 limits assumed): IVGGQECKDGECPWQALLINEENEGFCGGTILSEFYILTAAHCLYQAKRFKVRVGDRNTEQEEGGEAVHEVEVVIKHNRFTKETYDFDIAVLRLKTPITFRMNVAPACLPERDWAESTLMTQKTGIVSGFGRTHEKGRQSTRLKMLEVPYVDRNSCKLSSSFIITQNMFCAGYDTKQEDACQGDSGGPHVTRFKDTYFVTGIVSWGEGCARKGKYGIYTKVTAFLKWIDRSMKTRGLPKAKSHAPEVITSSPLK
Procedure: as §1, with “Measurement of in vitro degradation of hPEPD, mSRC and hAβ1-42. To determine” for “To determine”

FIIa = molecular target: T3, FIIa (Homo sapiens, UniProt P00734); test: hPEPD stability on incubation with FIIa; type: biochemical; settings: hPEPD 90 nM, FIIa 100 nM
T3 construct: purchased Haematologic Technologies HCT-0020
Procedure: as §1, with “Measurement of in vitro degradation of hPEPD, mSRC and hAβ1-42. To determine” for “To determine”

FXII [2] = test: Binding to coagulation factor FXII (IP and IB); design: species or system human; settings: 40 nM (hAβ1-42 200 nM) with FXII in PBS, 2 h
Procedure: Binding reactions were carried out in PBS in a total volume of 100 μl for 2 h at 37° C. To assess binding of hPEPD to HMWK, PK, FXI, FXII or a FXII mutant, hPEPD at 40 nM was incubated with a potential binding partner at 0.5 μM. All FXII mutants are His tagged, while FXII is either 6XHis-tagged (generated in our own laboratory) or not His-tagged (purchased commercially), depending on the experiment. To compare hPEPD and its mutants for binding to FXII, hPEPD or a mutant (40 nM) was incubated with FXII at 0.5 μM. Likewise, to assess binding of mSRC to FXII and its mutants, mSRC (40 nM) was incubated with FXII or a mutant at 0.5 μM. At the end of the incubation, 300 μl PBS containing a specific primary antibody was added to the incubation solution, which was further incubated at 4° C. overnight, followed by IP by protein G-agarose, and the precipitates were analyzed by IB. […] The precipitates were re-dissolved in 30 μl of 2% SDS, which were analyzed along with the supernatants by IB.

FXII [3] = test: FXII activation, chromogenic assay; type: biochemical, human
Procedure: Measurement of FXII activation. […] FXII activation was followed for 3 h at RT by monitoring the conversion of the chromogenic substrate at 405 nm by a microtiter plate reader.
as §2

plasma Aβ1-42 = test: Plasma Aβ1-42 concentration in mice by ELISA; type: in vivo, mouse; settings: FXII−/− mice, CCl4 0.5 g/kg or hPEPD 4 mg/kg i.p., 24 h
Procedure: Animal studies. All animal studies were performed in accordance with protocols approved by the Institutional Animal Care and Use Committee at Roswell Park Cancer Institute. Male mice at 7-8 weeks of age were used, including wild type (WT) mice (C57BL/6), and mice deficient in FXII (C57BL/6-FXII^−/−) or FVII (C57BL/6-FVII^tTA/tTA). WT C57BL/6 mice were purchased from Taconic. C57BL/6-FXII^−/− mice and C57BL/6-FVII^tTA/tTA mice were bred in our own facility and genotyped. […] CCl4 was dissolved in corn oil, whereas all other substances were dissolved in PBS. The vehicle or the test substance was given to mice in 0.1 ml volume per 20 g body weight. Blood was collected from the mice at specific times by cardiac puncture at the time of sacrifice by carbon dioxide, and heart, liver and kidney were also collected from some of the mice. Blood was collected into K3 EDTA-containing tubes (Multivette 600 from Sarstedt), unless specified otherwise. All blood samples were promptly centrifuged to obtain plasma samples.
Measurement of plasma levels of PEPD, SRC, Aβ1-42 and FI. […] The plates were washed three times with phosphate buffered saline tween-20 (PBST) and the coated wells were blocked by incubation with 200 μl/well of 1% BSA in PBS for at least 2 h at RT. After another round of wash with PBST, the plates were incubated with appropriately diluted Aβ1-42 standard, SRC standard or plasma samples (100 μl/well) for 2 h at RT. The plates were then washed with PBST and incubated with an anti-Aβ1-42 rabbit polyclonal antibody (sc-9129) or anti-SRC rabbit monoclonal antibody (2123) at 100 μl/well for 2 h at RT. The plates were washed again with PBST, and each well was incubated with a goat anti-rabbit IgG-HRP conjugate (100 μl) for 1 h at RT. After yet another round of wash with PBST, each well was incubated with 100 μl of HRP substrate 3,3′,5,5′-tetramethylbenzedine (Cell Signaling, 7004). Upon adequate color development, 100 μl of stop solution (Cell Signaling, 7002) was added to each well, and absorbance at 450 nm was promptly recorded by a microtiter plate reader.

B1: hPEPD: recombinant human prolidase (PEPD), 6xHis tagged to the carboxy terminus (protein, UniProt P12955 2-493, looked up)
Xaa-Pro dipeptidase: AAATGPSFWLGNETLKVPLALFALNRQRLCERLRKNPAVQAGSIVVLQGGEETQRYCTDTGVLFRQESFFHWAFGVTEPGCYGVIDVDTGKSTLFVPRLPASHATWMGKIHSKEHFKEKYAVDDVQYVDEIASVLTSQKPSVLLTLRGVNTDSGSVCREASFDGISKFEVNNTILHPEIVECRVFKTDMELEVLRYTNKISSEAHREVMKAVKVGMKEYELESLFEHYCYSRGGMRHSSYTCICGSGENSAVLHYGHAGAPNDRTIQNGDMCLFDMGGEYYCFASDITCSFPANGKFTADQKAVYEAVLRSSRAVMGAMKPGVWWPDMHRLADRIHLEELAHMGILSGSVDAMVQAHLGAVFMPHGLGHFLGIDVHDVGGYPEGVERIDEPGLRSLRTARHLQPGMVLTVEPGIYFIDHLLDEALADPARASFLNREVLQRFRGFGGVRIEEDVVVTDSGIELLTCVPRTVEEIEACMAGCDKAFTPFSGPK
modifications: C-terminal 6xHis tag
notes: recombinant human prolidase (PEPD), 6xHis tagged to the carboxy terminus
- activation/cleavage of plasma coagulation factors ([1]; FXII−/− mice): no activation of HMWK, FXI, PK and FIX, but slight activation of FX, FII and FVII
- activation/cleavage of plasma coagulation factors ([1]; WT mice): caused cleavage or activation of many coagulation factors
- proteolysis/fragmentation by FVIIa plus TF (FVIIa; FVIIa 10 nM plus TF 10 nM, CaCl2-containing PBS, RT): caused rapid and extensive hPEPD proteolysis
- degradation by FVIIa in the absence of TF (FVIIa; FVIIa 10 nM, no TF): degraded hPEPD
- hPEPD remaining (enzymatic activity) (FVIIa; hPEPD 10 nM, FVIIa 10 nM plus TF 10 nM, RT): 35.9%
- hPEPD remaining (enzymatic activity) (FVIIa; hPEPD 40 nM, FVIIa 10 nM plus TF 10 nM, RT): 46.3%
- hPEPD remaining (enzymatic activity) (FVIIa; hPEPD 90 nM, FVIIa 10 nM plus TF 10 nM, RT): 52.4%
- effect of FXa on hPEPD stability (FXa): had no effect on hPEPD stability
- effect of FIIa on hPEPD stability (FIIa): had no effect on hPEPD stability
- binding to FXII (FXII [2]): binds only to FXII
- FXII activation (FXII [3]; FXII 0.97 nM, ZnCl2-containing PBS, RT): did not differ in activating FXII
- Zn2+ requirement of FXII activation (FXII [3]; with or without ZnCl2 15 μM, IB): required Zn^2+
- average plasma level of mAβ1-42, increase (plasma Aβ1-42): remained unchanged
